# Results as given in patent US9994628B2, “Peptides and combination of peptides for use in immunotherapy against various tumors” (IMMATICS BIOTECHNOLOGIES GMBH, priority 2015, dated 2018).
# Molecular target: HLA-A*02:01 (Homo sapiens, UniProt P04439, D140Y/D185E/D98H/E176V/E277Q/G131W/G231S/I119V/I121R/I166T/I218V/L300P/L318F/N151K/N90K/P208A/P217A/Q86G/Q94H/R138H/R169H/T345S)
# Experiment: MHC binding assay: UV-ligand exchange and β2m ELISA (peptide exchange yield, Table 7)
# Conditions: binding of HLA-class I restricted peptides to HLA-A*02:01, UV-ligand exchange
# Excerpt: Candidate peptides for T cell based therapies according to the present invention were further tested for their MHC binding capacity (affinity). The individual peptide-MHC complexes were produced by UV-ligand exchange, where a UV-sensitive peptide is cleaved upon UV-irradiation, and exchanged with the peptide of interest as analyzed. Only peptide candidates that can effectively bind and stabilize the peptide-receptive MHC molecules prevent dissociation of the MHC complexes. To determine the yield of the exchange reaction, an ELISA was performed based on the detection of the light chain (β2 m) of stabilized MHC complexes. The assay was performed as generally described in Rodenko et al. (Rodenko et al., 2006).
# 96 well MAXISorp plates (NUNC) were coated over night with 2 ug/ml streptavidin in PBS at room temperature, washed 4× and blocked for 1 h at 37° C. in 2% BSA containing blocking buffer. Refolded HLA-A*02:01/MLA-001 monomers served as standards, covering the range of 15-500 ng/ml. Peptide-MHC monomers of the UV-exchange reaction were diluted 100 fold in blocking buffer. Samples were incubated for 1 h at 37° C., washed four times, incubated with 2 ug/ml HRP conjugated anti-β2 m for 1 h at 37° C., washed again and detected with TMB solution that is stopped with […]. Absorption was measured at 450 nm. Candidate peptides that show a high exchange yield (preferably higher than 50%, most preferred higher than 75%) are generally preferred for a generation and production of antibodies or fragments thereof, and/or T cell receptors or fragments thereof, as they show sufficient avidity to the MHC molecules and prevent dissociation of the MHC complexes.
row,"Peptide exchange (MHC class I binding score, peptide exchange yield)",Substance
1,+++ (≥50% = +++),253 (KLLAVIHEL; listed as Homo sapiens) [compound 253]
2,++ (≥20% = ++),119 (SLIEESEEL; listed as Homo sapiens) [compound 119]
3,+++ (≥50% = +++),158 (YLDPLWHQL; listed as Homo sapiens) [compound 158]
4,++ (≥20% = ++),91 (LLPSIFLMV; listed as Homo sapiens) [compound 91]
5,+++ (≥50% = +++),217 (LLWPSSVPA; listed as Homo sapiens) [compound 217]
6,++ (≥20% = ++),163 (GLEERLYTA; listed as Homo sapiens) [compound 163]
7,+++ (≥50% = +++),286 (FLTEMVHFI; listed as Homo sapiens) [compound 286]
8,+++ (≥50% = +++),125 (AALEVLAEV; listed as Homo sapiens) [compound 125]
9,+++ (≥50% = +++),75 (ALLDGALQL; listed as Homo sapiens) [compound 75]
10,+++ (≥50% = +++),111 (AQLEGKLVSI; listed as Homo sapiens) [compound 111]
11,+++ (≥50% = +++),41 (IVTEIISEI; listed as Homo sapiens) [compound 41]
12,+++ (≥50% = +++),7 (ALLQALMEL; listed as Homo sapiens) [compound 7]
13,++ (≥20% = ++),37 (QIVELIEKI; listed as Homo sapiens) [compound 37]
14,+++ (≥50% = +++),55 (HLFDKIIKI; listed as Homo sapiens) [compound 55]
15,++ (≥20% = ++),72 (VLSTRVTNV; listed as Homo sapiens) [compound 72]
16,++ (≥20% = ++),28 (IKVTDPQLLEL; listed as Homo sapiens) [compound 28]
17,++ (≥20% = ++),105 (AMLASQTEA; listed as Homo sapiens) [compound 105]
18,++ (≥20% = ++),184 (ALDSTIAHL; listed as Homo sapiens) [compound 184]
19,++ (≥20% = ++),282 (SLYALHVKA; listed as Homo sapiens) [compound 282]
20,+++ (≥50% = +++),82 (ILAEEPIYIRV; listed as Homo sapiens) [compound 82]
21,++ (≥20% = ++),185 (TLYQGLPAEV; listed as Homo sapiens) [compound 185]

row,"Peptide exchange (MHC class I binding score, peptide exchange yield)",Substance
1,++ (≥20% = ++),252 (SLMEKNQSL; listed as Homo sapiens) [compound 252]
2,++++ (≥75% = ++++),161 (NLLDENVCL; listed as Homo sapiens) [compound 161]
3,++ (≥20% = ++),170 (FIAAVVEKV; listed as Homo sapiens) [compound 170]
4,+++ (≥50% = +++),257 (KLIDHQGLYL; listed as Homo sapiens) [compound 257]
5,++ (≥20% = ++),33 (TLDRNSLYV; listed as Homo sapiens) [compound 33]
6,+++ (≥50% = +++),148 (YLILSSHQL; listed as Homo sapiens) [compound 148]
7,+++ (≥50% = +++),168 (VIFEGEPMYL; listed as Homo sapiens) [compound 168]
8,+++ (≥50% = +++),228 (SLLELDGINLRL; listed as Homo sapiens) [compound 228]
9,++ (≥20% = ++),142 (LLDAAHASI; listed as Homo sapiens) [compound 142]
10,+++ (≥50% = +++),132 (ALLNNVIEV; listed as Homo sapiens) [compound 132]
11,+++ (≥50% = +++),45 (FLPVSVVYV; listed as Homo sapiens) [compound 45]
12,++++ (≥75% = ++++),206 (GLDAFRIFL; listed as Homo sapiens) [compound 206]
13,++ (≥20% = ++),107 (RVLPGQAVTGV; listed as Homo sapiens) [compound 107]
14,++ (≥20% = ++),281 (LLLESDPKVYSL; listed as Homo sapiens) [compound 281]
15,+++ (≥50% = +++),98 (FVQEKIPEL; listed as Homo sapiens) [compound 98]
16,+++ (≥50% = +++),62 (SLVENIHVL; listed as Homo sapiens) [compound 62]
17,+++ (≥50% = +++),166 (LLGDSSFFL; listed as Homo sapiens) [compound 166]
18,++ (≥20% = ++),133 (FLDGRPLTL; listed as Homo sapiens) [compound 133]
19,++ (≥20% = ++),258 (QLVQRVASV; listed as Homo sapiens) [compound 258]
20,++ (≥20% = ++),106 (VLLGSVVIFA; listed as Homo sapiens) [compound 106]
21,+++ (≥50% = +++),239 (VIIKGLEEITV; listed as Homo sapiens) [compound 239]

row,"Peptide exchange (MHC class I binding score, peptide exchange yield)",Substance
1,++ (≥20% = ++),268 (SLDKDIVAL; listed as Homo sapiens) [compound 268]
2,++ (≥20% = ++),243 (GLAEFQENV; listed as Homo sapiens) [compound 243]
3,+++ (≥50% = +++),263 (SIIEYLPTL; listed as Homo sapiens) [compound 263]
4,++ (≥20% = ++),35 (VIIKGLEEI; listed as Homo sapiens) [compound 35]
5,+++ (≥50% = +++),177 (ALINVLNAL; listed as Homo sapiens) [compound 177]
6,+++ (≥50% = +++),108 (FIANLPPELKA; listed as Homo sapiens) [compound 108]
7,++ (≥20% = ++),149 (NMADGQLHQV; listed as Homo sapiens) [compound 149]
8,+++ (≥50% = +++),207 (KLFETVEEL; listed as Homo sapiens) [compound 207]
9,+++ (≥50% = +++),285 (MLLDTVQKV; listed as Homo sapiens) [compound 285]
10,+++ (≥50% = +++),218 (SLTGANITV; listed as Homo sapiens) [compound 218]
11,++ (≥20% = ++),254 (ALGDKFLLRV; listed as Homo sapiens) [compound 254]
12,++ (≥20% = ++),247 (NLLIDDKGTIKL; listed as Homo sapiens) [compound 247]
13,++++ (≥75% = ++++),84 (FLLEREQLL; listed as Homo sapiens) [compound 84]
14,++ (≥20% = ++),284 (KLMDPGSLPPL; listed as Homo sapiens) [compound 284]
15,+++ (≥50% = +++),76 (FTAEFLEKV; listed as Homo sapiens) [compound 76]
16,++ (≥20% = ++),113 (FLFLKEVKV; listed as Homo sapiens) [compound 113]
17,++ (≥20% = ++),66 (AMFPDTIPRV; listed as Homo sapiens) [compound 66]
18,++ (≥20% = ++),235 (SLLNQPKAV; listed as Homo sapiens) [compound 235]
19,+++ (≥50% = +++),244 (NVAEIVIHI; listed as Homo sapiens) [compound 244]
20,+++ (≥50% = +++),95 (KLIDEDEPLFL; listed as Homo sapiens) [compound 95]
